This is an account of results in paper PMC11208152, “Dynamic Arabidopsis P5CS filament facilitates substrate channelling” (Nature Plants, 2024).

What is called stoichiometry N is the number of molecules, sites or subunits per partner or assembly.

Data set [1] deals with the molecule itself. The experiment in a line: cryo-EM structure; mixed state: about 5 μM purified protein in reaction buffer with all substrates (25 mM Tris-HCl pH 8.0, 150 mM NaCl, 20 mM glutamate, 10 mM MgCl2, 5 mM ATP, 0.5 mM NADPH), on ice about 30 min (AtP5CS1) or 60 min (AtP5CS2); filament of tetrameric helical units, focus refinement on the GK tetramer.
Data set [2] deals with the molecule itself. The experiment in a line: negative-staining EM; purified protein about 2-4 μM incubated at 25 °C with substrates (ATP, glutamate, both, or all substrates = mixed state) at the concentrations of the activity assay; step seen: oligomers (tetramers) into filaments.

B1: Arabidopsis thaliana delta-1-pyrroline-5-carboxylate synthase 2 (AtP5CS2), wild type (enzyme, UniProt P54888 1-726, looked up)
chain: MTEIDRSRAFAKDVKRIVVKVGTAVVTGKGGRLALGRLGAICEQLAELNSDGFEVILVSSGAVGLGRQRLRYRQLVNSSFADLQKPQMELDGKACAGVGQSSLMAYYETMFDQLDVTVAQMLVTDSSFRDKDFRKQLSETVKAMLRMRVIPVFNENDAISTRRAPYKDSTGIFWDNDSLAALLSLELKADLLILLSDVEGLYTGPPSDSTSKLIHTFIKEKHQDEITFGEKSKLGRGGMTAKVKAAVNAAYGGVPVIITSGYAAENISKVLRGLRVGTLFHQDAHLWAPVVDTTSRDMAVAARESSRKLQALSSEDRKQILHDIANALEVNEKTIKAENDLDVAAAQEAGYEESLVARLVMKPGKISSLAASVRQLAEMEDPIGRVLKKTQVADDLILEKTSSPIGVLLIVFESRPDALVQIASLAIRSGNGLLLKGGKEARRSNAILHKVITDAIPETVGGKLIGLVTSREEIPDLLKLDDVIDLVIPRGSNKLVSQIKNSTKIPVLGHADGICHVYVDKSGKLDMAKRIVSDAKLDYPAACNAMETLLVHKDLEQNGFLDDLIYVLQTKGVTLYGGPRASAKLNIPETKSFHHEYSSKACTVEIVEDVYGAIDHIHQHGSAHTDCIVTEDSEVAEIFLRQVDSAAVFHNASTRFSDGFRFGLGAEVGISTSRIHARGPVGVEGLLTTRWIMRGKGQVVDGDNGIVYTHKDLPVLQRTEAVENGI
notes: Delta-1-pyrroline-5-carboxylate synthase 2 (P5CS2) of Arabidopsis thaliana; In the filament the helical unit is a tetramer (GK tetramer core, two GPR dimers); Only the GK tetramer was modelled at high resolution; also called AtP5CS2-WT; WT AtP5CS2; source: E. coli Rosetta (DE3), purified (Ni-NTA, SUMO-tag removed with yeast ULP1, Superose 6 Increase SEC); not shown: His6, N-terminal, cleaved; …
For B1, in data set [1], the “stoichiometry N” value turned out to be 4.

B2: AtP5CS2-GK, truncated AtP5CS2 consisting of residues 1-290 (glutamate kinase domain) (domain or fragment, Arabidopsis thaliana, UniProt P54888 1-290, looked up)
chain: MTEIDRSRAFAKDVKRIVVKVGTAVVTGKGGRLALGRLGAICEQLAELNSDGFEVILVSSGAVGLGRQRLRYRQLVNSSFADLQKPQMELDGKACAGVGQSSLMAYYETMFDQLDVTVAQMLVTDSSFRDKDFRKQLSETVKAMLRMRVIPVFNENDAISTRRAPYKDSTGIFWDNDSLAALLSLELKADLLILLSDVEGLYTGPPSDSTSKLIHTFIKEKHQDEITFGEKSKLGRGGMTAKVKAAVNAAYGGVPVIITSGYAAENISKVLRGLRVGTLFHQDAHLWAPV
notes: Delta-1-pyrroline-5-carboxylate synthase 2 (P5CS2) of Arabidopsis thaliana, residues 1-290, the glutamate kinase (GK) domain; probably made as His6-SUMO fusion in E. coli and cleaved with ULP1 like the full-length AtP5CS2 (surmised); also called AtP5CS2 GK domain
Regarding B2, the binding result in data set [2] is listed as “binds”.

B3: Arabidopsis thaliana delta-1-pyrroline-5-carboxylate synthase 1 (AtP5CS1) (enzyme, UniProt P54887 1-717, looked up)
chain: MEELDRSRAFARDVKRIVVKVGTAVVTGKGGRLALGRLGALCEQLAELNSDGFEVILVSSGAVGLGRQRLRYRQLVNSSFADLQKPQTELDGKACAGVGQSSLMAYYETMFDQLDVTAAQLLVNDSSFRDKDFRKQLNETVKSMLDLRVIPIFNENDAISTRRAPYQDSSGIFWDNDSLAALLALELKADLLILLSDVEGLYTGPPSDPNSKLIHTFVKEKHQDEITFGDKSRLGRGGMTAKVKAAVNAAYAGIPVIITSGYSAENIDKVLRGLRVGTLFHQDARLWAPITDSNARDMAVAARESSRKLQALSSEDRKKILLDIADALEANVTTIKAENELDVASAQEAGLEESMVARLVMTPGKISSLAASVRKLADMEDPIGRVLKKTEVADGLVLEKTSSPLGVLLIVFESRPDALVQIASLAIRSGNGLLLKGGKEARRSNAILHKVITDAIPETVGGKLIGLVTSREEIPDLLKLDDVIDLVIPRGSNKLVTQIKNTTKIPVLGHADGICHVYVDKACDTDMAKRIVSDAKLDYPAACNAMETLLVHKDLEQNAVLNELIFALQSNGVTLYGGPRASKILNIPEARSFNHEYCAKACTVEVVEDVYGAIDHIHRHGSAHTDCIVTEDHEVAELFLRQVDSAAVFHNASTRFSDGFRFGLGAEVGVSTGRIHARGPVGVEGLLTTRWIMRGKGQVVDGDNGIVYTHQDIPIQA
notes: Delta-1-pyrroline-5-carboxylate synthase 1 (P5CS1) of Arabidopsis thaliana; also called His6-AtP5CS1; not shown: His6, N-terminal, kept
In the case of B3, in data set [1], the “stoichiometry N” value amounted to 4.
